Assay results taken from paper PMC12138128, “Thermal proteome profiling (TPP) reveals NAMPT as the anti-glioma target of phenanthroindolizidine alkaloid PF403” (Acta Pharmaceutica Sinica. B, 2025).

Biological target: the molecule itself
Assay: crystal structure; cocrystal of recombinant NAMPT with the small molecule PF403, hanging drop vapor diffusion, 1.86 Å; NAMPT seen as a dimer with two PF403 molecules

B1: nicotinamide phosphoribosyl transferase (NAMPT), recombinant, His-tagged (enzyme, human)
chain: MNPAAEAEFNILLATDSYKVTHYKQYPPNTSKVYSYFECREKKTENSKLRKVKYEETVFYGLQYILNKYLKGKVVTKEKIQEAKDVYKEHFQDDVFNEKGWNYILEKYDGHLPIEIKAVPEGFVIPRGNVLFTVENTDPECYWLTNWIETILVQSWYPITVATNSREQKKILAKYLLETSGNLDGLEYKLHDFGYRGVSSQETAGIGASAHLVNFKGTDTVAGLALIKKYYGTKDPVPGYSVPAAEHSTITAWGKDHEKDAFEHIVTQFSSVPVSVVSDSYDIYNACEKIWGEDLRHLIVSRSTQAPLIIRPDSGNPLDTVLKVLEILGKKFPVTENSKGYKLLPPYLRVIQGDGVDINTLQEIVEGMKQKMWSIENIAFGSGGGLLQKLTRDLLNCSFKCSYVVTNGLGINVFKDPVADPNKRSKKGRLSLHRTPAGNFVTLEEGKGDLEEYGQDLLHTVFKNGKVTKSYSFDEIRKNAQLNIELEAAHH
notes: nicotinamide phosphoribosyl transferase (NAMPT), human; Dimer in the cocrystal structure with the small molecule PF403 (PDB 8Y55); also called recombinant NAMPT; WT NAMPT; source: E. coli BL21 (DE3), pET-28a(+), purified (Ni-NTA)
B1: binds.
